This is an account of results in patent US20130225434A1 (BOARD OF TRUSTEES OF THE UNIVERSITY OF ILLINOIS, published 2013).

Sequences and labels used below:
B1: D2 variant of the FHA1 domain, phage-displayed (protein III fusion) (designed binder, not shown: small tags and cut ends)
chain: MENITQPTQQSTQATQRFLIEKFSQEQIGENIVFRVISTTGQIPIRDLSADISQVLKEKRSIKKVWTFGRNPACDYHLGNISRLSNKHFQILLGEDGNLLLNDISTNGTWLNGQKVEKNSNQLLSQGDEITVGVGVESDILSLVIFINDKFKQSLEQNKVDRIRSNLKNT
notes: Selected from a mutagenic library built on the 3C-3S template; one added mutation S34F; also called position 34 F variant
B2: D2 FHA1 variant with W at position 34, phage-displayed (designed binder)
chain: B1 chain with F34W
notes: Made from D2 by Kunkel mutagenesis at position 34; also called S34W; not shown: N-terminal Flag peptide, cloning-site residues and M13 protein III (display carrier)
B3: BRCT-pS (peptide)
peptide: Biotin-SGSAYDI[pS]QVFPFAKKK-NH2
SMILES: CC[C@H](C)[C@H](NC(=O)[C@H](CC(=O)O)NC(=O)[C@H](Cc1ccc(O)cc1)NC(=O)[C@H](C)NC(=O)[C@H](CO)NC(=O)CNC(=O)[C@H](CO)NC(=O)CCCC[C@@H]1SC[C@@H]2NC(=O)N[C@@H]21)C(=O)N[C@@H](COP(=O)(O)O)C(=O)N[C@@H](CCC(N)=O)C(=O)N[C@H](C(=O)N[C@@H](Cc1ccccc1)C(=O)N1CCC[C@H]1C(=O)N[C@@H](Cc1ccccc1)C(=O)N[C@@H](C)C(=O)N[C@@H](CCCCN)C(=O)N[C@@H](CCCCN)C(=O)N[C@@H](CCCCN)C(N)=O)C(C)C
notes: also called Biotin-BRCT-pS

The target in assay [1] is Rad9 pT peptide used for ITC (SLEVp…) (yeast). The assay can be described thus: ITC, pT peptide injected into 35 µM FHA1 domain, three repeats.
For assay [2], the target named is Rad9-pT peptide with SGS linker (SGS-SLEVp…) (yeast). Briefly: FTS assay, 1 µM protein, 250 µM pT peptide.
Assay [3] shares this target. The assay can be described thus: FTS assay, 4 µM protein, 50 µM pT peptide.
Assay [4] has the same target. The assay can be described thus: FTS assay, 1 µM protein, 50 µM pT peptide.
Assay [5] has the same target. Briefly: FTS assay, 4 µM protein, 250 µM pT peptide.
Assay [6] has as its target Rad9 pT peptide used for ITC (SLEVp…) (yeast). The assay can be described thus: ITC.
Assay [7] addresses B3. Briefly: phage ELISA; biotinylated peptide on Neutravidin, A405. On the procedure:
FIG. 9A is a photograph of 96-well plates containing phage supernatants from 96 individual clones, which were isolated after three rounds of selection, heated (50° C.), cooled, and added to microtiter plate wells coated with the phosphopeptide ligand. Binding of phage particles in the wells was monitored with an anti-M13 antibody conjugated to HRP. FIG. 9B is a graph showing the ratio of the ELISA signals for individual phage clones generated with wells contained with the target protein compared to a negative control protein (background).
Phage particles produced from 96 clones isolated after round #3, were heated at 50° C. for 3 hr and cooled to RT. The phage supernatants were then incubated with both the target peptide (500 ng/well) immobilized on NeutrAvidin (1 μg/well) coated plate wells and an unrelated target (background). Binding phage clones were detected using anti-M13 antibody conjugated to HRP (GE Healthcare). The green, colored product of the enzymatic reaction in the microtiter plate wells was measured at 405 nm using the FLUOstar OPTIMA plate reader (BMG Labtech). […] In some cases, the signal over background ratio ranged from 3 to 20 for clones (FIG. 9B).
For orientation: ELISA stands for enzyme-linked immunosorbent assay.

Assay [8] has as its target T1, Plk1-pT (SMILES …).
T1 peptide: Biotin-SGSAGPMQS[pT]PLNGAKK-NH2
The assay can be described thus: phage ELISA; biotinylated peptide on Neutravidin; anti-M13-HRP, A405 [a]. The text has this: (§1) Binding of phage particles was detected using anti-M13 antibody conjugated to HRP. FIG. 4(b) is a graph of the results of ELISA experiments of GST fusions of the WT FHA1 domain and three of its variants, 3C-3S, 4C-4S, and D2, that bound specifically to the cognate pT peptide (Rad9-pT; shown as solid histograms) immobilized on plastic microtiter plate wells via Neutravidin. Binding was detected using anti-GST antibody conjugated to HRP. The peptide sequences for Rad9-pT, Rad9-T, Rad9-pS, Rad9-pY, Plk1-pT and BRCT-pS are SGSSLEVp[…] (SEQ ID NO: 1), […] (SEQ ID NO: 2), SGSSLEVp[…] (SEQ ID NO: 3), SGSSLEVp[…] (SEQ ID NO: 4), […]p[…] (SEQ ID NO: 5) and SGSAYDIp[…] (SEQ ID NO: 6), respectively. The peptide sequence for the WT FHA1 domain from S. cerevisiae Rad53 protein kinase includes […] (SEQ ID NO:7), which includes residues 1-170 of S. cerevisiae Rad53 (SEQ ID NO:8) (Liao et al. (2000) J. Mol. Biol 304, 941-51; Durocher et al. (1999) Mol Cell 4). […] The β-strands are labeled from 1 to 11 in the WT FHA1 domain structure and the N- and C-termini are noted.

The target of assay [9] is T2, Rad9-pS (SMILES …).
T2 peptide: Biotin-SGSSLEV[pS]EADATFYAKK-NH2
The assay is described as above.
From the text: as §1

Assay [10] addresses T3, Rad9-pY (SMILES …).
T3 peptide: Biotin-SGSSLEV[pY]EADATFYAKK-NH2
The assay is described as above.
From the text: as §1

Assay [11] deals with T4, Rad9-pT peptide with SGS linker (SGS-SLEVpTEADATFYAKK) (yeast, SMILES …).
T4 construct: also called cognate pT peptide; Rad-pT
T4 peptide: Biotin-SGSSLEV[pT]EADATFYAKK-NH2
The assay can be described thus: phage ELISA, normalised to Flag. The text has this:
Through Kunkel mutagenesis (Yaffe (2002) Nat Rev Mol Cell Bol 3, 177-86), the amino acid residue at position 34 in the β1 strand of the D2 FHA 1 domain was replaced (from the naturally-occurring V) one at a time with each of the other naturally occurring amino acids and binding to the immobilized Rad9-pT peptide was monitored by phage ELISA. Phage binding was detected using anti-M13 antibody conjugated to Horse Radish Peroxidase (HRP). […] All the variants display an N-terminal Flag peptide and the amount of phage particles used for each variant in this experiment has been normalized for this epitope.
To amplify the phage particles displaying the recombinant FHA1 variants, TG1 bacterial cells (5 mL; Stratagene) harboring the phagemid DNA were infected at mid-log (OD₆₀₀ₙₘ=0.5-0.6) with M13K07 helper phage (New England Biolabs) at a multiplicity of infection (MOI) of 20 for 1 h at 37° C. at 150 rpm. Infected cells were centrifuged, and the pellet was resuspended in fresh Luria Bertani medium (LB: 10 g Tryptone, 5 g Yeast extract, and 10 g NaCl per liter) supplemented with 50 μg/mL carbenicillin and 50 μg/ml kanamycin, and phage were amplified overnight at 30° C. at 250 rpm. All of the phage ELISA steps were performed at room temperature. […]

Assay [12] deals with T5, WT FHA1 domain of S. cerevisiae Rad53, phage-displayed (protein III fusion on bacteriophage M13) (Saccharomyces cerevisiae; bacteriophage …, UniProt P22216 1-170).
T5 construct: not shown: minor coat protein III (pIII, gene III product) of bacteriophage M13
T5 sequence: B1 chain with F34C, S38C, S154C
Briefly: phage ELISA; biotinylated peptide on Neutravidin; anti-M13-HRP, A405 [a].
From the text: as §1

The target in assay [13] is T6, WT FHA1 domain, GST fusion (Saccharomyces cerevisiae, UniProt P22216 1-170).
T6 construct: Expressed in the bacterial cytoplasm; cell lysate used in the ELISA; The order GST then FHA1 follows the pGEX-2T vector; also called GST fusion of the WT FHA1 domain; FHA1-GST fusion protein; not shown: Glutathione S-transferase (GST) of the pGEX-2T vector (GE Healthcare)
T6 sequence: B1 chain with F34C, S38C, S154C
The assay can be described thus: ELISA with GST fusion (cell lysate); biotinylated peptide on Neutravidin; anti-GST-HRP, A405 [b].

Residue numbers refer to the chain shown, from its start. Numbers in names are those of the source. Square brackets hold non-standard residues; d marks the D form. * marks the point of attachment. Biotin = O=C1N[C@H]2[C@H](CS[C@H]2CCCCC(=O)*)N1; pY = N[C@@H](Cc1ccc(OP(=O)(O)O)cc1)C(=O)O; pT = C[C@@H](OP(=O)(O)O)[C@H](N)C(=O)O; pS = N[C@@H](COP(=O)(O)O)C(=O)O

Broadly, the Kd is the concentration at which binding is half-saturated. With “WT FHA1 domain, purified with C-terminal six-histidine tag (from UniProt P22216 1-170)”, the Kd in assay [1] was 1000 nM. Further, the Tm shift in the presence of pT peptide in assay [2] amounted to 3.8 ° C; in assay [3], 1.95 ° C; in assay [4], 1.7 ° C; in assay [5] it was 3.55 ° C. Further, in assay [6], the stoichiometry stood at 1.

B1: the binding result in assay [7], in [8], in [9] and in [10] was “no binding” each time.

For B2, in [11], the binding result is reported as “no binding”.

As to B3, the binding result in [12] and in [13] was “no binding” each time.
